Measured values published in article PMC10903946 (Genes & Development, 2024).

Target: T1, mCherry-LacR-MITF (human, UniProt O75030-9 1-419)
T1 sequence: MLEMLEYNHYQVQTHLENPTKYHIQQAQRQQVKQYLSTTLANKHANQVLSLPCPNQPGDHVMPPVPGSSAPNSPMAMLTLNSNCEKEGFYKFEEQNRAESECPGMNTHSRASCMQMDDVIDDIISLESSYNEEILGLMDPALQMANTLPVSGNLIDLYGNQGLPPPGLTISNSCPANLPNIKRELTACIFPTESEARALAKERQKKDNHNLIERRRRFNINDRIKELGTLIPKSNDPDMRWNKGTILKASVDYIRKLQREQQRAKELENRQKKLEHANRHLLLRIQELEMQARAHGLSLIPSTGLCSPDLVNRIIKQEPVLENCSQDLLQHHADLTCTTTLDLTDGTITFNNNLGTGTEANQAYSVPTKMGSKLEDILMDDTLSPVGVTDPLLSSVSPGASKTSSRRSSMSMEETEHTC
Assay: LacR/LacO nuclear tethering assay

median enrichment of GFP at the mCherry dot over the rest of the nucleus: 7 fold
B1: NBS1-GFP (natural protein)
chain: MWKLLPAAGPAGGEPYRLLTGVEYVVGRKNCAILIENDQSISRNHAVLTANFSVTNLSQTDEIPVLTLKDNSKYGTFVNEEKMQNGFSRTLKSGDGITFGVFGSKFRIEYEPLVACSSCLDVSGKTALNQAILQLGGFTVNNWTEECTHLVMVSVKVTIKTICALICGRPIVKPEYFTEFLKAVESKKQPPQIESFYPPLDEPSIGSKNVDLSGRQERKQIFKGKTFIFLNAKQHKKLSSAVVFGGGEARLITEENEEEHNFFLAPGTCVVDTGITNSQTLIPDCQKKWIQSIMDMLQRQGLRPIPEAEIGLAVIFMTTKNYCDPQGHPSTGLKTTTPGPSLSQGVSVDEKLMPSAPVNTTTYVADTESEQADTWDLSERPKEIKVSKMEQKFRMLSQDAPTVKESCKTSSNNNSMVSNTLAKMRIPNYQLSPTKLPSINKSKDRASQQQQTNSIRNYFQPSTKKRERDEENQEMSSCKSARIETSCSLLEQTQPATPSLWKNKEQHLSENEPVDTNSDNNLFTDTDLKSIVKNSASKSHAAEKLRSNKKREMDDVAIEDEVLEQLFKDTKPELEIDVKVQKQEEDVNVRKRPRMDIETNDTFSDEAVPESSKISQENEIGKKRELKEDSLWSAKEISNNDKLQDDSEMLPKKLLLTEFRSLVIKNSTSRNPSGINDDYGQLKNFKKFKKVTYPGAGKLPHIIGGSDLIAHHARKNTELEEWLRQEMEVQNQHAKEESLADDLFRYNPYLKRRR
